Assay results reported in patent US20240360189A1.

Molecular target: SLAMF7 (CS1, CD319, CRACC) on NK92MI cells (human) (UniProt Q9NQ25)
Experiment: flow cytometry, cross-linking of violet-stained NK92MI cells with PKH26-stained P. aeruginosa RP73; controls without molecule 0.29 and 0.31

B1: BiKE B′: ELO scFv [(RTX VL 10-first amino-acids/ELO (VL-VH)] anti-SLAMF7.C4bpβ.scFv (VL-VH) anti-Psl.FLAG (bispecific antibody, not shown: small tags and cut ends)
chain: RSQIVLSQSPAILSASVGDRVTITCKASQDVGIAVAWYQQKPGKVPKLLIYWASTRHTGVPDRFSGSGSGTDFTLTISSLQPEDVATYYCQQYSSYPYTFGQGTKVEIKGGSSRSSSSGGGGSGGGGEVQLVESGGGLVQPGGSLRLSCAASGFDFSRYWMSWVRQAPGKGLEWIGEINPDSSTINYAPSLKDKFIISRDNAKNSLYLQMNSLRAEDTAVYYCARPDGNYWYFDVWGQGTLVTVSSASGGGGSSGGGGSSGGGGSIQEAPKPECEKALLAFQESKNLCEAMENFMQQLKESGMTMEELKYSLELKKAELKAKLLSGGGGSSGGGGSSGGGGSDIQLTQSPSSLSASVGDRVTITCRASQSIRSHLNWYQQKPGKAPKLLIYGASNLQSGVPSRFSGSGSGTDFTLTISSLQPEDFATYYCQQSTGAWNWFGCGTKVEIKGGGGSGGGGSGGGGSGGGGSQVQLQESGPGLVKPSETLSLTCTVSGGSISPYYWTWIRQPPGKCLELIGYIHSSGYTDYNPSLKSRVTISGDTSKKQFSLKLSSVTAADTAVYYCARADWDRLRALDIWGQGTMVTVSS
modifications: Covalent homodimer through the cysteines of the C4bp beta fragment; one chain is given.
% colocalization (violet+PKH26+): 1.85%
